Experimental findings from patent publication US20120316071A1 (published 2012) are described below.

In test [1] the target is T1, Recombinant Human DLL4 (delta-like protein 4) (human, UniProt Q9NR61 27-524).
T1 construct: Bought recombinant protein (R&D Systems Cat#1506-D4/CF); also called rHuman DLL4
The test can be described thus: ELISA on plate-coated DLL4, 100 nM Fab.

The target of test [2] is T1, Recombinant Human DLL4 (delta-like …). Description: ECL 96-well plate assay on immobilised DLL4, 10 nM Fab.
The target in test [3] is T2, Recombinant Human DLL4 (R&D Systems Cat#1506-D4/CF) (human, UniProt Q9NR61 27-524).
T2 construct: Bought recombinant protein; also called delta-like protein 4; rHuman DLL4
The test can be described thus: ECL multispot (MSD) binding assay, DLL4 spotted on plate, purified Fab in solution; Fab concentration not given.

In test [4] the target is T2, Recombinant Human DLL4 (R&D Systems …). The test can be described thus: ECL multispot (MSD) binding assay, DLL4 signal over blank spot; Fab concentration not given.

B1: Fab VH1-46_IGHD6-6*01_IGHJ1*01 S102A/S103P/S104F/H111F N52P & L6_IGKJ1*01 (Fab, V domains shown)
VH: QVQLVQSGAEVKKPGASVKVSCKASGYTFTSYYMHWVRQAPGQGLEWMGIIPPSGGSTSYAQKFQGRVTMTRDTSTSTVYMELSSLRSEDTAVYYCAREEYAPFSAEYFQFWGQGTLVTVSS
VL: not shown
notes: Fab from E. coli; CH1 (with His and Flag tags) and kappa CL come from the expression plasmids; also called APFF N52P
With B1, the “ELISA signal” value in test [1] was determined as 0.18. Moreover, in test [2], the “ECL signal” value amounted to 44800.

B2: Fab VH1-46_IGHD6-6*01_IGHJ1*01 S102A/S103P/S104F/H111F N52W & L6_IGKJ1*01 (Fab, V domains shown)
VH: QVQLVQSGAEVKKPGASVKVSCKASGYTFTSYYMHWVRQAPGQGLEWMGIIWPSGGSTSYAQKFQGRVTMTRDTSTSTVYMELSSLRSEDTAVYYCAREEYAPFSAEYFQFWGQGTLVTVSS
VL: not shown
notes: Fab from E. coli; CH1 (with His and Flag tags) and kappa CL come from the expression plasmids; also called APFF N52W
Turning to B2, the “ELISA signal” value in test [1] was 0.42. The “ECL signal” value in test [2] came to 87000.

B3: Fab VH1-46_IGHD6-6*01_IGHJ1*01 S102A/S103P/S104F/H111F (APFF) & L6_IGKJ1*01 S28H (Fab, V domains shown)
VH: QVQLVQSGAEVKKPGASVKVSCKASGYTFTSYYMHWVRQAPGQGLEWMGIINPSGGSTSYAQKFQGRVTMTRDTSTSTVYMELSSLRSEDTAVYYCAREEYAPFSAEYFQFWGQGTLVTVSS
VL: EIVLTQSPATLSLSPGERATLSCRASQHVSSYLAWYQQKPGQAPRLLIYDASNRATGIPARFSGSGSGTDFTLTISSLEPEDFAVYYCQQRSNWPPWTFGQGTKVEIKR
notes: Fab expressed in E. coli: VH joined to CH1 (Plasmid A, His6 and Flag tags), VL joined to kappa CL (Plasmid C); also called APFF S28H
On to B3, for which the “ECL signal” value in test [3] is 209000. Moreover, the Signal/Blank in test [4] was 609.

B4: Fab VH1-46_IGHD6-6*01_IGHJ1*01 S102A/S103P/S104F/H111F G56W & L6_IGKJ1*01 (Fab, V domains shown)
VH: QVQLVQSGAEVKKPGASVKVSCKASGYTFTSYYMHWVRQAPGQGLEWMGIINPSGWSTSYAQKFQGRVTMTRDTSTSTVYMELSSLRSEDTAVYYCAREEYAPFSAEYFQFWGQGTLVTVSS
VL: not shown
notes: Fab from E. coli; CH1 (with His and Flag tags) and kappa CL come from the expression plasmids; also called APFF G56W
For B4, the “ELISA signal” value in test [1] is 0.54. The “ECL signal” value in test [2] was found to be 69600.

B5: Fab VH1-46_IGHD6-6*01_IGHJ1*01 S102A/S103P/S104F/H111F N52A & L6_IGKJ1*01 (Fab, V domains shown)
VH: QVQLVQSGAEVKKPGASVKVSCKASGYTFTSYYMHWVRQAPGQGLEWMGIIAPSGGSTSYAQKFQGRVTMTRDTSTSTVYMELSSLRSEDTAVYYCAREEYAPFSAEYFQFWGQGTLVTVSS
VL: not shown
notes: Fab from E. coli; CH1 (with His and Flag tags) and kappa CL come from the expression plasmids; also called APFF N52A
For the molecule B5, in test [1], the “ELISA signal” value is 0.12. For the same molecule, the “ECL signal” value in test [2] came to 52500.

B6: Fab VH1-46_IGHD6-6*01_IGHJ1*01 S102A/S103P/S104F/H111F G56I & L6_IGKJ1*01 (Fab, V domains shown)
VH: QVQLVQSGAEVKKPGASVKVSCKASGYTFTSYYMHWVRQAPGQGLEWMGIINPSGISTSYAQKFQGRVTMTRDTSTSTVYMELSSLRSEDTAVYYCAREEYAPFSAEYFQFWGQGTLVTVSS
VL: not shown
notes: Fab from E. coli; CH1 (with His and Flag tags) and kappa CL come from the expression plasmids; also called APFF G56I
For B6, the “ELISA signal” value in test [1] was determined as 0.23. Also, the “ECL signal” value in test [2] was 77000.

B7: Fab VH1-46_IGHD6-6*01_IGHJ1*01 S102A/S103P/S104F/H111F G56R & L6_IGKJ1*01 (Fab, V domains shown)
VH: QVQLVQSGAEVKKPGASVKVSCKASGYTFTSYYMHWVRQAPGQGLEWMGIINPSGRSTSYAQKFQGRVTMTRDTSTSTVYMELSSLRSEDTAVYYCAREEYAPFSAEYFQFWGQGTLVTVSS
VL: not shown
notes: Fab from E. coli; CH1 (with His and Flag tags) and kappa CL come from the expression plasmids; also called APFF G56R
With B7, in test [1], the “ELISA signal” value is 0.2. The “ECL signal” value in test [2] is 64300.

B8: Fab VH1-46_IGHD6-6*01_IGHJ1*01 S102A/S103P/S104F/H111F N52Q & L6_IGKJ1*01 (Fab, V domains shown)
VH: QVQLVQSGAEVKKPGASVKVSCKASGYTFTSYYMHWVRQAPGQGLEWMGIIQPSGGSTSYAQKFQGRVTMTRDTSTSTVYMELSSLRSEDTAVYYCAREEYAPFSAEYFQFWGQGTLVTVSS
VL: not shown
notes: Fab from E. coli; CH1 (with His and Flag tags) and kappa CL come from the expression plasmids; also called APFF N52Q
For the molecule B8, the “ELISA signal” value in test [1] came out at 0.1. Also, in test [2], the “ECL signal” value came out at 60600.

B9: Fab VH1-46_IGHD6-6*01_IGHJ1*01 S102A/S103P/S104F/H111F (APFF) & L6_IGKJ1*01 S28E (Fab, V domains shown)
VH: QVQLVQSGAEVKKPGASVKVSCKASGYTFTSYYMHWVRQAPGQGLEWMGIINPSGGSTSYAQKFQGRVTMTRDTSTSTVYMELSSLRSEDTAVYYCAREEYAPFSAEYFQFWGQGTLVTVSS
VL: EIVLTQSPATLSLSPGERATLSCRASQEVSSYLAWYQQKPGQAPRLLIYDASNRATGIPARFSGSGSGTDFTLTISSLEPEDFAVYYCQQRSNWPPWTFGQGTKVEIKR
notes: Fab expressed in E. coli: VH joined to CH1 (Plasmid A, His6 and Flag tags), VL joined to kappa CL (Plasmid C); also called APFF S28E
As for B9, the “ECL signal” value in test [3] was determined as 184000. The Signal/Blank in test [4] was found to be 439.

B10: Fab VH1-46_IGHD6-6*01_IGHJ1*01 S102A/S103P/S104F/H111F N52L & L6_IGKJ1*01 (Fab, V domains shown)
VH: QVQLVQSGAEVKKPGASVKVSCKASGYTFTSYYMHWVRQAPGQGLEWMGIILPSGGSTSYAQKFQGRVTMTRDTSTSTVYMELSSLRSEDTAVYYCAREEYAPFSAEYFQFWGQGTLVTVSS
VL: not shown
notes: Fab from E. coli; CH1 (with His and Flag tags) and kappa CL come from the expression plasmids; also called APFF N52L
For the molecule B10, the “ELISA signal” value in test [1] was found to be 1.06. In addition, the “ECL signal” value in test [2] amounted to 75500.

B11: Fab VH1-46_IGHD6-6*01_IGHJ1*01 S102A/S103P/S104F/H111F N52Y & L6_IGKJ1*01 (Fab, V domains shown)
VH: QVQLVQSGAEVKKPGASVKVSCKASGYTFTSYYMHWVRQAPGQGLEWMGIIYPSGGSTSYAQKFQGRVTMTRDTSTSTVYMELSSLRSEDTAVYYCAREEYAPFSAEYFQFWGQGTLVTVSS
VL: not shown
notes: Fab from E. coli; CH1 (with His and Flag tags) and kappa CL come from the expression plasmids; also called APFF N52Y
On to B11, for which the “ELISA signal” value in test [1] was 0.01. The “ECL signal” value in test [2] turned out to be 24500.

B12: Fab VH1-46_IGHD6-6*01_IGHJ1*01 S102A/S103P/S104F/H111F G56S & L6_IGKJ1*01 (Fab, V domains shown)
VH: QVQLVQSGAEVKKPGASVKVSCKASGYTFTSYYMHWVRQAPGQGLEWMGIINPSGSSTSYAQKFQGRVTMTRDTSTSTVYMELSSLRSEDTAVYYCAREEYAPFSAEYFQFWGQGTLVTVSS
VL: not shown
notes: Fab from E. coli; CH1 (with His and Flag tags) and kappa CL come from the expression plasmids; also called APFF G56S
Consider B12, for which the “ELISA signal” value in test [1] is 0.18. Moreover, the “ECL signal” value in test [2] amounted to 65700.

B13: Fab VH1-46_IGHD6-6*01_IGHJ1*01 S102A/S103P/S104F/H111F N52S & L6_IGKJ1*01 (Fab, V domains shown)
VH: QVQLVQSGAEVKKPGASVKVSCKASGYTFTSYYMHWVRQAPGQGLEWMGIISPSGGSTSYAQKFQGRVTMTRDTSTSTVYMELSSLRSEDTAVYYCAREEYAPFSAEYFQFWGQGTLVTVSS
VL: not shown
notes: Fab from E. coli; CH1 (with His and Flag tags) and kappa CL come from the expression plasmids; also called APFF N52S
For the molecule B13, the “ELISA signal” value in test [1] is 0.28. Further, the “ECL signal” value in test [2] is 62200.
